Changes are numbered by the printed parent chain.
B1: 51N1, 72A (protein, listed as Rattus norvegicus)
chain: AFDGTWKVDRNENYEKFMEKMGINVVKRKLGAHDNLKLTITQEGNKFTVKNSSNFRNIDVVFELGVDFAYSAADGTELTGTWTMEGNKLVGKFKRVDNGKELIAVREISGNELIQTYTYEGVEAKRIFKKE
modifications: PEPTIDE (1)...(131) wild-type rat intestinal fatty acid binding protein
B2: 51P3, 72A (protein, listed as Rattus norvegicus)
chain: B1 chain with N51P
modifications: PEPTIDE (1)...(131) wild-type rat intestinal fatty acid binding protein
B3: 51Q1, 72A (protein, listed as Rattus norvegicus)
chain: B1 chain with N51Q
modifications: PEPTIDE (1)...(131) wild-type rat intestinal fatty acid binding protein
B4: 51R1, 72A (protein, listed as Rattus norvegicus)
chain: B1 chain with N51R
modifications: PEPTIDE (1)...(131) wild-type rat intestinal fatty acid binding protein
B5: 51S1, 72A (protein, listed as Rattus norvegicus)
chain: B1 chain with N51S
modifications: PEPTIDE (1)...(131) wild-type rat intestinal fatty acid binding protein
B6: 51T3, 72A (protein, listed as Rattus norvegicus)
chain: B1 chain with N51T
modifications: PEPTIDE (1)...(131) wild-type rat intestinal fatty acid binding protein
B7: 51V3, 72A (protein, listed as Rattus norvegicus)
chain: B1 chain with N51V
modifications: PEPTIDE (1)...(131) wild-type rat intestinal fatty acid binding protein
B8: 51W2, 72A (protein, listed as Rattus norvegicus)
chain: B1 chain with N51W
modifications: PEPTIDE (1)...(131) wild-type rat intestinal fatty acid binding protein
B9: 51Y1, 72A (protein, listed as Rattus norvegicus)
chain: B1 chain with N51Y
modifications: PEPTIDE (1)...(131) wild-type rat intestinal fatty acid binding protein
B10: 55A1, 72A (protein, listed as Rattus norvegicus)
chain: B1 chain with N51E, F55A
modifications: PEPTIDE (1)...(131) wild-type rat intestinal fatty acid binding protein
B11: 55D1, 72A (protein, listed as Rattus norvegicus)
chain: B1 chain with N51E, F55D
modifications: PEPTIDE (1)...(131) wild-type rat intestinal fatty acid binding protein
B12: 55E, 72A (protein, listed as Rattus norvegicus)
chain: B1 chain with N51E, F55E
modifications: PEPTIDE (1)...(131) wild-type rat intestinal fatty acid binding protein
B13: 55G1, 72A (protein, listed as Rattus norvegicus)
chain: B1 chain with N51E, F55G
modifications: PEPTIDE (1)...(131) wild-type rat intestinal fatty acid binding protein
B14: 55H2, 72A (protein, listed as Rattus norvegicus)
chain: B1 chain with N51E, F55H
modifications: PEPTIDE (1)...(131) wild-type rat intestinal fatty acid binding protein
B15: 55I1, 72A (protein, listed as Rattus norvegicus)
chain: B1 chain with N51E, F55I
modifications: PEPTIDE (1)...(131) wild-type rat intestinal fatty acid binding protein
B16: 55K1, 72A (protein, listed as Rattus norvegicus)
chain: B1 chain with N51E, F55K
modifications: PEPTIDE (1)...(131) wild-type rat intestinal fatty acid binding protein
B17: 55L1, 72A (protein, listed as Rattus norvegicus)
chain: B1 chain with N51E, F55L
modifications: PEPTIDE (1)...(131) wild-type rat intestinal fatty acid binding protein
B18: 55M1, 72A (protein, listed as Rattus norvegicus)
chain: B1 chain with N51E, F55M
modifications: PEPTIDE (1)...(131) wild-type rat intestinal fatty acid binding protein

Assay: Probe fluorescence ratio response to oleic acid relative to ADIFAB2
Type: binding
Conditions: response relative to ADIFAB2
Procedure, shortened: (§1)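 Each fatty acid's response was expressed relative to ADIFAB2, the rI-FABP-L72A probe, as ΔR/ΔRreference. ΔR is the change in the background-corrected two-wavelength intensity ratio R=Fλ1/Fλ2 from its analyte-free baseline R0. Emission was read near about 420-480 nm for unbound and about 495-580 nm for FFA-bound probe.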

Molecule	DR/DR OA
B1	1.26
B2	1.21
B3	1.43
B4	1.35
B5	1.61
B6	1.44
B7	1.43
B8	1.55
B9	1.38
B10	0.30
B11	0.10
B12	0.21
B13	0.19
B14	0.27
B15	0.90
B16	0.30
B17	0.82
B18	1.41

Assay: Probe fluorescence ratio response to linoleic acid relative to ADIFAB2
Type: binding
Conditions: response relative to ADIFAB2
Procedure, shortened: as §1

Molecule	DR/DR LA
B1	1.46
B2	1.42
B3	1.63
B4	1.56
B5	1.78
B6	1.65
B7	1.64
B8	1.77
B9	1.50
B10	0.34
B11	0.12
B12	0.21
B13	0.22
B14	0.38
B15	0.83
B16	0.34
B17	0.71
B18	0.97

Assay: Probe fluorescence ratio response to palmitic acid relative to ADIFAB2
Type: binding
Conditions: response relative to ADIFAB2
Procedure, shortened: as §1

Molecule	DR/DR PA
B1	0.73
B2	0.72
B3	0.73
B4	0.73
B5	0.80
B6	0.71
B7	0.73
B8	0.80
B9	0.72
B10	0.28
B11	0.10
B12	0.17
B13	0.18
B14	0.26
B15	0.77
B16	0.27
B17	0.63
B18	0.84

Assay: Probe fluorescence ratio response to linolenic acid relative to ADIFAB2
Type: binding
Conditions: response relative to ADIFAB2
Procedure, shortened: as §1

Molecule	DR/DR LNA
B1	1.39
B2	1.48
B3	1.65
B4	1.56
B5	1.66
B6	1.60
B7	1.53
B8	1.70
B9	1.44
B10	0.36
B11	0.12
B12	0.21
B13	0.23
B14	0.32
B15	0.89
B16	0.35
B17	0.72
B18	1.42

Assay: Probe fluorescence ratio response to arachidonic acid relative to ADIFAB2
Type: binding
Conditions: Arachidonic acid; response relative to ADIFAB2
Procedure, shortened: as §1

Molecule	DR/DR AA
B1	1.38
B2	1.42
B3	1.56
B4	1.50
B5	1.64
B6	1.60
B7	1.52
B8	1.69
B9	1.38
B10	0.33
B11	0.11
B12	0.21
B13	0.19
B14	0.36
B15	1.08
B16	0.32
B17	0.86
B18	1.40

From patent publication US20060257938A1, “Method of screening for drugs that block ligand binding to a lipid binding protein” (priority 2005, published 2006)
